Assay [1] concerns the target T1, fibroblast activation protein (FAP) on FAP-expressing human WI-38 fibroblasts (human), Q12884. The assay is described as follows: competitive FACS, WI-38 cells, vs Cy5 tracer m3; D = pIC50 <=6.0. The following applies: remark: other sources report otherwise.
Assay [2] addresses T1, fibroblast activation protein (FAP) on …. The assay can be described thus: competitive FACS, WI-38 cells, vs Cy5 tracer m3; A = pIC50 >8.0. The settings on record: remark: other sources report otherwise.
In assay [3] the target is Recombinant human DPP4 (R&D systems, #9168-SE) (human) (UniProt P27487). The assay can be described thus: cell-based or functional assay.
In assay [4] the target is recombinant human PREP (R&D systems, #4308-SE) (human) (UniProt P48147). The assay can be described thus: cell-based or functional assay.
The target in assay [5] is human fibroblast activation protein (FAP) on WI-38 fibroblasts (human) (UniProt Q12884). The assay is described as follows: competitive FACS, WI-38 cells, Cy5-labeled peptide as competitor; C = pIC50 6.1 to 7.0.
Assay [6] deals with T2, Cathepsin F (UniProt Q9UBX1).
T2 sequence (looked up): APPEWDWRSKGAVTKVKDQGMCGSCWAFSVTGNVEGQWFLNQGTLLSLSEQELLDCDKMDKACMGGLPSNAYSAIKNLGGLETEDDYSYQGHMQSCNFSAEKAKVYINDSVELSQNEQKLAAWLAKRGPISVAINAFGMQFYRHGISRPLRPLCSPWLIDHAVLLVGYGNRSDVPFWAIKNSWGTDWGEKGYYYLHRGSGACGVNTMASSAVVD
The assay is described as follows: cell-based or functional assay.

Numbered stars: 1 amine (or outer) side, 2 acyl side, 3 side chain; on linkers, the order of the positions; unused ones are H or OH. Bridge positions count the residues as written; N and C are the ends. Square brackets hold non-standard residues; d marks the D form. Primed or numbered codes have the meaning given here. * marks the point of attachment. Ttds″ = 1,13-diamino-4,7,10-trioxatridecan-succinamic acid spacer, O=C(CCC(=O)[*:2])NCCCOCCOCCOCCCN[*:1]; 3MeBn″ = 3-methylbenzylidene (meta-xylylene bridge from alpha,alpha'-dibromo-m-xylene); N4Ac = 6-Carboxy-1,4,8,11-tetraazaundecane, an N4-chelator, NCCNCC(CNCCN)C(=O)*; Biotin = O=C1N[C@H]2[C@H](CS[C@H]2CCCCC(=O)*)N1; mXylylene = c1cc(C[*:1])cc(C[*:2])c1; 4Pal = N[C@@H](Cc1ccncc1)C(=O)O; Nle = CCCC[C@H](N)C(=O)O; Hexanoyl = CCCCCC(=O)*; Mpa = O=C(O)CCS Where only a bound is given, the exact number is not on record here.

Chain of Recombinant human DPP4 (R&D systems, #9168-SE) (human) (P27487 29-766 limits assumed): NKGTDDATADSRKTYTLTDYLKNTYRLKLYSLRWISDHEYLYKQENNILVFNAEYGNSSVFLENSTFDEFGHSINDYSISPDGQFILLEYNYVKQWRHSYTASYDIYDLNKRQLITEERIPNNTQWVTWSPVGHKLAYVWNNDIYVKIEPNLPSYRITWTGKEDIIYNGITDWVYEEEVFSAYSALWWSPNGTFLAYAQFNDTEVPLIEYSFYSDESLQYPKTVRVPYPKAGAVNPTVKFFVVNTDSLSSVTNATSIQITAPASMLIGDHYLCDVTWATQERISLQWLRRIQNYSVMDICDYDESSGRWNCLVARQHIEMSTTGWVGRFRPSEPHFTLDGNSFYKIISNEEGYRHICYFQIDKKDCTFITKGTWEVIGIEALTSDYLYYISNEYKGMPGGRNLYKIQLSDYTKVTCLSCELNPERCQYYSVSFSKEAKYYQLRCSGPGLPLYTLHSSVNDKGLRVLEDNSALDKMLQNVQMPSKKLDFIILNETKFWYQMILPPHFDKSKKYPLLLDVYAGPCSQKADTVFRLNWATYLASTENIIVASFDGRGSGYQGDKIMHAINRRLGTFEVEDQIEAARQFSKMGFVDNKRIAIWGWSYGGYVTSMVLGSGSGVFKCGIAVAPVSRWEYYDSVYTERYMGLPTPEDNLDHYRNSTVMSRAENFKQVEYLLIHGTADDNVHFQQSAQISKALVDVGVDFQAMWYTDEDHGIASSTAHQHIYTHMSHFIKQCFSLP
Chain of recombinant human PREP (R&D systems, #4308-SE) (human) (P48147 whole entry): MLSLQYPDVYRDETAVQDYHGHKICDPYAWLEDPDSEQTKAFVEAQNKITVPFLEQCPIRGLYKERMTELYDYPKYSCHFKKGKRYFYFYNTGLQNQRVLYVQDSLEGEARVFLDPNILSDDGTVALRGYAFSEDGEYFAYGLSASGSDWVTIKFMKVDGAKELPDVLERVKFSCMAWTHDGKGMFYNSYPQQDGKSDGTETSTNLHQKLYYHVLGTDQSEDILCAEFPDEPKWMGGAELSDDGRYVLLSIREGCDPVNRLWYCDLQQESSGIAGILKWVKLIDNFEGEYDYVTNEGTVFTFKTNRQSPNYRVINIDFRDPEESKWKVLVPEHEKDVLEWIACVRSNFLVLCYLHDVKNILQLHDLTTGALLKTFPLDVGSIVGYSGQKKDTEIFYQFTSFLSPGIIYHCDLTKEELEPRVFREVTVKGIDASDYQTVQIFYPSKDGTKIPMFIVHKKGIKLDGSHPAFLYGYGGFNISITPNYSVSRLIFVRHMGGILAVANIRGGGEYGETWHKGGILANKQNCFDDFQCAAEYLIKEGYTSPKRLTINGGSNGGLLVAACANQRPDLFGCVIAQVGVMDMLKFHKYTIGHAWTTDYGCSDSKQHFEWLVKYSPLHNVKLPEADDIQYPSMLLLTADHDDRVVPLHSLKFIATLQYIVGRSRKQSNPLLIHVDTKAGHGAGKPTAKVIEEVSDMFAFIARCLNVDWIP

B1: Hex-[Cys(3MeBn)-Pro-Pro-Thr-Glu-Ala-Cys]-NH2 (peptide)
peptide: Hexanoyl-CPPTEAC-NH2
modifications: linker 1-7 via mXylylene
SMILES: CCCCCC(=O)N[C@H]1CSCc2cccc(c2)CSC[C@@H](C(N)=O)NC(=O)[C@H](C)NC(=O)[C@H](CCC(=O)O)NC(=O)[C@H]([C@@H](C)O)NC(=O)[C@@H]2CCCN2C(=O)[C@@H]2CCCN2C1=O
B1: the pIC50 Category (FACS) in assay [1] was below 6 pIC50.

B2: Hex-[Cys(3MeBn)-Pro-Pro-Thr-Glu-Phe-Cys]-Asp-NH2 (peptide)
peptide: Hexanoyl-CPPTEFCD-NH2
modifications: linker 1-7 via mXylylene
SMILES: CCCCCC(=O)N[C@H]1CSCc2cccc(c2)CSC[C@@H](C(=O)N[C@@H](CC(=O)O)C(N)=O)NC(=O)[C@H](Cc2ccccc2)NC(=O)[C@H](CCC(=O)O)NC(=O)[C@H]([C@@H](C)O)NC(=O)[C@@H]2CCCN2C(=O)[C@@H]2CCCN2C1=O
Take B2: the pIC50 Category (FACS) in assay [2] was above 8 pIC50.

B3: [3MeBn-Spa-Pro-Pro-Thr-Gln-Phe-Cys]-Asp-NH2 (peptide)
peptide: [Mpa]PPTQFCD-NH2
modifications: linker 1-7 via mXylylene
SMILES: C[C@@H](O)[C@@H]1NC(=O)[C@@H]2CCCN2C(=O)[C@@H]2CCCN2C(=O)CCSCc2cccc(c2)CSC[C@@H](C(=O)N[C@@H](CC(=O)O)C(N)=O)NC(=O)[C@H](Cc2ccccc2)NC(=O)[C@H](CCC(N)=O)NC1=O
In the case of B3, the pIC50 (DPP4) in assay [3] was below 6 pIC50. Also, in assay [4], the pIC50 (PREP) was below 6 pIC50.

B4: H-Met-[Cys(3MeBn)-Pro-Pro-Thr-Glu-Phe-Cys]-Asp-His-Phe-Arg-Asp-Ttds-Lys(Bio)-NH2 (peptide)
peptide: H-MCPPTEFCDHFRD[Ttds″]K(Biotin)-NH2
modifications: linker 2-8 via mXylylene
SMILES: CSCC[C@H](N)C(=O)N[C@H]1CSCc2cccc(c2)CSC[C@@H](C(=O)N[C@@H](CC(=O)O)C(=O)N[C@@H](Cc2c[nH]cn2)C(=O)N[C@@H](Cc2ccccc2)C(=O)N[C@@H](CCCNC(=N)N)C(=O)N[C@@H](CC(=O)O)C(=O)NCCCOCCOCCOCCCNC(=O)CCC(=O)N[C@@H](CCCCNC(=O)CCCC[C@@H]2SC[C@@H]3NC(=O)N[C@@H]32)C(N)=O)NC(=O)[C@H](Cc2ccccc2)NC(=O)[C@H](CCC(=O)O)NC(=O)[C@H]([C@@H](C)O)NC(=O)[C@@H]2CCCN2C(=O)[C@@H]2CCCN2C1=O
Regarding B4, the pIC50 (DPP4) in assay [3] is below 6 pIC50. Moreover, in assay [4], the pIC50 (PREP) was below 6 pIC50.

B5: N4Ac-Ttds-Nle-[Cys-(3MeBn)-Pro-Pro-Thr-Glu-Ppa-Cys]-OH (peptide)
peptide: N4Ac-[Ttds″][Nle]CPPTE[4Pal]C-OH
modifications: linker 3-9 via mXylylene
SMILES: CCCC[C@H](NC(=O)CCC(=O)NCCCOCCOCCOCCCNC(=O)C(CNCCN)CNCCN)C(=O)N[C@H]1CSCc2cccc(c2)CSC[C@@H](C(=O)O)NC(=O)[C@H](Cc2ccncc2)NC(=O)[C@H](CCC(=O)O)NC(=O)[C@H]([C@@H](C)O)NC(=O)[C@@H]2CCCN2C(=O)[C@@H]2CCCN2C1=O
In assay [5], B5 displayed a pIC50 of 6.1 to 7 pic50.

B6: Hex-[Cys(3MeBn)-Pro-Pro-Thr-Glu-Phe-Cys]-NH2 (peptide)
peptide: Hexanoyl-CPPTEFC-NH2
modifications: linker 1-7 via 3MeBn″
Regarding B6, the pIC50 (DPP4) in assay [3] was below 6 pIC50. Also, in assay [4], the pIC50 (PREP) is below 6 pIC50.

B7: Hex-[Cys(3MeBn)-Ala-Pro-Thr-Glu-Phe-Cys]-NH2 (peptide)
peptide: Hexanoyl-CAPTEFC-NH2
modifications: linker 1-7 via mXylylene
SMILES: CCCCCC(=O)N[C@H]1CSCc2cccc(c2)CSC[C@@H](C(N)=O)NC(=O)[C@H](Cc2ccccc2)NC(=O)[C@H](CCC(=O)O)NC(=O)[C@H]([C@@H](C)O)NC(=O)[C@@H]2CCCN2C(=O)[C@H](C)NC1=O
In assay [1], B7 showed a pIC50 Category (FACS) below 6 pIC50.

B8: Cystatin C (protein, UniProt P01034 27-146, looked up)
chain: SSPGKPPRLVGGPMDASVEEEGVRRALDFAVGEYNKASNDMYHSRALQVVRARKQIVAGVNYFLDVELGRTTCTKTQPNLDNCPFHDQPHLKRKAFCSFQIYAVPWQGTMTLSKSTCQDA
The molecule B8 displayed a Percentage inhibition (%), reference at 1 µM in assay [6] of 74%.

The record behind these values is patent publication US20230212549A1, “COMPOUNDS COMPRISING A […] LIGAND AND USE THEREOF” (priority 2021, published 2023).
